The source of these data is the DeepSol protein solubility set.

The nature of this series: soluble on expression in E. coli; label from the status in PepcDB or PDB records.
Consider “AHHHHHHGSKEIVERVKTKTKIPVYERSVENVLSAVLASDDIWRIVDLSEEPLPLVVAILESLNELGYVTFEDGVKLTEKGEELVAEYGIGKRYDFTCPHCQGKTVDLQAFADLLEQFREIVKDRPEPLHEFDQAYVTPETTVARVILMHTRGDLENKDIFVLGDDDLTSIALMLSGLPKRIAVLDIDERLTKFIEKAANEIGYEDIEIFTFDLRKPLPDYALHKFDTFITDPPETLEAIRAFVGRGIATLKGPRCAGYFGITRRESSLDKWREIQKLLLNEFNVVITDIIRNFNEYVNWGYAEETRAWKLIPIKKLPEYNWYKSYMFRIETLEGSRGYEDEIPEEDIYNDEESSTT”, for which the “soluble on expression in E. coli” value was “soluble”.
As to “MKAYWIAHVDVTDPQQYSEYTQRAPAAFQLFGGKFLARGGRSEAIEGRATPQRTVIIEFESYEQAVACYHSPQYQNAMSHRQGAAKAEIVIVEGQP”, the “soluble on expression in E. coli” value is “not soluble”.
On to “MKLESPLGSDLARLVRIWRALIDHRLKPLELTQTHWVTLHNIHQLPPDQSQIQLAKAIGIEQPSLVRTLDQLEEKGLISRQTCASDRRAKRIKLTEKAEPLISEMEAVINKTRAEILHGISAEELEQLITLIAKLEHNIIELQAKG”, for which the “soluble on expression in E. coli” value is on record as “not soluble”.
“MTWQPFYVGTGQAPAGAEEQVVLPPAPPWREFPRRSQHRQFVPPPRLAEAVNAALALRRPLLVTGPAGSGKSTVIEQVAAELALGDVLRWHITSRSSLAEALYRYDALGRIHAQRLEGPGGSDDIAPFLRMGPLGTALLPSARPRALLIDEIDKSDLDLPSDLLDVLERGEFEIPELARYGTDVVPVREHGGERTHLIARGRVQCAEFPFIVMTSNGDRDFPAAFLRRCIRFTMPLPTPETLLRVVEAHMGPEKAAADETGRLITVFLERLTAGESLAVDQLLNAVHLLTGDGAPGDDRRQAIAELILRELSHALEHHHHHH”: the “soluble on expression in E. coli” value is reported as “not soluble”.
Regarding “MPLEASELKPTAGPLEASELKPTAGPLEASELKPTAGPLEASELKPTAGPLEASELKPTAGPLEASELKPTAGPLEASELKPTAGMKLKGRGIVKGVAEGELVVSRKPLSFLGGVDPNTGIITDPESDIQGEKITGKILAFPRGKGSTVGSYVIYALAKKGTGPKAIIVEEAEAIVAVGAIIAGIPLVTGIDISKLKSGMKVRVDGERGEVEIIAQGDLLEHHHHHH”, the “soluble on expression in E. coli” value was “not soluble”.
For “MGSDKIHHHHHHMKVLIITNLFPLNNNSNSGIFVVQRLRHYKSFNVNLDTISLGHHNSKIASLLEKLLRGHSNKKTLEEVENVKFYPVSIEINLLRLIKYGLLRNYFTVLCKEYKKMIEEAFNLNEYDLIHAHGMYSVPAGLTAKILAEKYRKPFIVTLHGSDVNLFMPHRKEIYVSILESASATIFVSKALLEKAKSLGFSGKNAVVIPNGYDETIFKPMDKEAVRKELGIHREGYKYVGFVGNLIPIKRADKLGEIFHLIAKEIPETFFIIVGDGPLRKKIEKETKGLNIIFTGRLPQKDVAKYMNAMDVMVLPSRNEGWPCVILEAQACGTCVIGSSNRGIPEAIGFPEYVVEEGDQFEERFARRVVEVLNEGYDVNRILERAKGFTWRNIVEKEIDVHKRVVLKS” the value was “not soluble”; for “INLSTLPEHLTYLVRSSRVLQELHESEAQNRALLNAIPDMMLHVCREGTILDFRAGNGCAYAAFGGNLRGRTIADLLPPGAAAQFMAQVGHALATGTMMVCEYELEGPGGLNTHEARIVANG”, “not soluble”.
With “MKNNRYSPDWPQLALQKKQSVNWVCERCGVQCLKPGEGKGLSTGDRYRLRMAVHHCDYDPSNNYPSNLMALCSPCHLYYHRRQRGNVTPGQLTLKFCLEHHHHHH” the entry was “not soluble”.
Turning to “IGQVNLSARGNFTFARNEIIEYDQVPQVYPWLEKRGTRLNSNKLYIAEGLYTYDDFIINGEGLNRTYELKPGVVSGLSSGVRPGDIKYKDLNGDGKIDSNDQKEDVGNPTVPEVVYGFGFNAEWKGFYAGIFFQGAGNTSTVLGTGADATFFPFQWGVEESAVRSVVADRWTEQNPSQNVMFPRMHSNNFQNNTVASTWWLRDASFLRLKNIELGYNFDKKLLKKLNIEALRFYVQGNNLCVWDHIKMWDPEQGNSNGGFPYPLNRTFTFGLDFTF”, the “soluble on expression in E. coli” value is given as “not soluble”.
As to “MSLTVDFSRFPLAPGDRVLDLGCGAGRHAFECYRRGARVVALDQNAEEIREVAKWFAAMEEAGEAPAGATATAMEGDALALPFPDESFDVVIISEVMEHIPDDKGVLAEMVRVLKPGGRIAITVPRYGPEKVCWTLSDAYHEVEGGHIRIYRADQLLTRIREAGLKPYGTHHAHALHSPYWWLKCAFGVDNDKALPVRAYHKLLVWDIMKKPLATRVAEQALNPLIGKSFVAYATKPHLPPVDAEGHHHHHH”, the “soluble on expression in E. coli” value is on record as “soluble”.
With “MNYRNKAFLKYEEDYFIERIIKALKDYEEIIIISNNPEEYKEFGLKVFKDIYPSQGPLSGIHSALNHIKNDYCLVVACDMPFINKDVVNYLGNIKEDYEILIPKFQERLQPLCAIYKKSCKDIMEKELINNSNKLIKTCFKFSMKVVEEFPFIEKVHKKEIKNFYNINTVDEYEDLIKKKEILEHHHHHH”, the “soluble on expression in E. coli” value is recorded as “not soluble”.
For the sequence “MFKNLIWLKEVDSTQERLKEWNVSYGTALVADRQTKGRGRLGRKWLSQEGGLYFSFLLNPKEFENLLQLPLVLGLSVSEALEEITEIPFSLKWPNDVYFQEKKVSGVLCELSKDKLIVGIGINVNQREIPEEIKDRATTLYEITGKDWDRKEVLLKVLKRISENLKKFKEKSFKEFKGKIESKMLYLGEEVKLLGEGKITGKLVGLSEKGGALILTEEGIKEILSGEFSLRRS”, the “soluble on expression in E. coli” value is listed as “soluble”.
With “MGRSRRTLPEELLLLALDPTTGTTAQPQSLDLGLAGAQLVELALAGRIAPDGDRIAVVAPRPTGDPTLDCALELLRRRGAPVRAVNWIGGPRLGLRQTYLSHLERCGMVHAVEGQMCGVLPTTRYQATDTAISREIKARLDSAIRTGVPPDPRTAALAALAHAVGLGKHLYPGNEGRSSRSRLRDLIRHDPMGGLVAHAVMDVQNGAAAQPRRSPAPAGRQAPGPGARPAPEPARGVPAQPRHGSMARAAVHLEHHHHHH”, the “soluble on expression in E. coli” value is “soluble”.
For the sequence “MGHHHHHHKVTLPDLKWDFGALEPYISGQINELHYTKHHQTYVNGFNTAVDQFQELSDLLAKEPSPANARKMIAIQQNIKFHGGGFTNHCLFWENLAPESQGGGEPPTGALAKAIDEQFGSLDELIKLTNTKLAGVQGSGWAFIVKNLSNGGKLDVVQTYNQDTVTGPLVPLVAIDAWEHAYYLQYQNKKADYFKAIWNVVNWKEASRRFDAGKI”, the “soluble on expression in E. coli” value is “soluble”.
As to “MPENYTPAAAATGTWTEEEIRHQPRAWIRSLTNIDALRSALNNFLEPLLRKENLRIILTGAGTSAFIGDIIAPWLASHTGKNFSAVPTTDLVTNPMDYLNPAHPLLLISFGRSGNSPESVAAVELANQFVPECYHLPITCNEAGALYQNAINSDNAFALLMPAETHDRGFAMTSSITTMMASCLAVFAPETINSQTFRDVADRCQAILTSLGDFSEGVFGYAPWKRIVYLGSGGLQGAARESALKVLELTAGKLAAFYDSPTGFRHGPKSLVDDETLVVVFVSSHPYTRQYDLDLLAELRRDNQAMRVIAIAAESSDIVAAGPHIILPPSRHFIDVEQAFCFLMYAQTFALMQSLHMGNTPDTPSASGTVNRVVQGVIIHPWQA”, the “soluble on expression in E. coli” value is “soluble”.
For “MAGPQQQPPYLHLAELTASQFLEIWKHFDADGNGYIEGKELENFFQELEKARKGSGMMSKSDNFGEKMKEFMQKYDKNSDGKIEMAELAQILPTEENFLLCFRQHVGSSTEFMEAWRKYDTDRSGYIEANELKGFLSDLLKKANRPYDEPKLQEYTQTILRMFDLNGDGKLGLSEMSRLLPVQENFLLKFQGMKLTSEEFNAIFTFYDKDRSGYIDEHELDALLKDLYEKNKKEMNIQQLTNYRKSVMSLAEAGKLYRKDLEIVLCSEPPM”, the “soluble on expression in E. coli” value is “not soluble”.
With “MGSDKIHHHHHHMIVPQEIYHPLYEDKEKFIILITGGRGSGKSFNASTFIERLTFELTPVEKIVHQILYTRYTMVSAGMSIIPEMMEKIELDGTTKYFKTTKTDIVNKMTKSRIMFRGIKTSSGNQTAKLKSIQGITTFVCDEAEEWTNEEEFDKIMLSIRKKGIQNRIIIIMNPCDSNHFIYKKYIENTHKLVEIDGVQVQISTHPNVLHIHTTYLDNLENLSPEFLKEVEDMKVNNPEKYAHVVIGRWADVAEGAVFKKWGIVDEFPAWAKKVAIGQDFGYTHDPSASIRCGIVDNALYLDEIDYRTGLLSSDIIKSLRPWGLKVIADSADPRLIQEIHNGGVKIYAVEKGAGSVNAGLDKMQGMEMYITKRSYNLQREYRKYVWAKDKDGNYINEPEDHDNHGIDAVRYYVLGELLGKIQKPKDLTGIFTH” the entry was “not soluble”.
